According to US20250320281A1:

How the values were obtained:
Experiment in all cases: cell-based or functional assay
[1] = molecular target: HIV-1 APV-13 envelope glycoprotein (Env) on pseudovirus (HIV-1)
[2] = molecular target: HIV-1 APV-17 envelope glycoprotein (Env) on pseudovirus (HIV-1)
[3] = molecular target: HIV-1 Env of isolate 93MW959 (clade C) (HIV-1 isolate 93MW959)
[4] = molecular target: HIV-1 Env of isolate APV_13, clade B, on pseudovirus (HIV-1)
[5] = molecular target: HIV-1 Env of isolate APV_6, clade B, on pseudovirus (HIV-1)
[6] = molecular target: HIV-1 Env of isolate MGRM-Chronic-B-001, clade B, on pseudovirus (HIV-1)
[7] = molecular target: HIV-1 Env of isolate MGRM-D-001 (clade D pseudovirus) (HIV-1)
[8] = molecular target: HIV-1 Env of isolate MGRM-D-005 (clade D pseudovirus) (HIV-1)
[9] = molecular target: HIV-1 Env of isolate MGRM-D-020 (clade D pseudovirus) (HIV-1)
[10] = molecular target: HIV-1 Env of isolate MGRM-D-028 (clade D pseudovirus) (HIV-1)
[11] = molecular target: HIV-1 Env of isolate VLGCA1 (clade A pseudovirus) (HIV-1)
[12] = molecular target: HIV-1 Env of pseudovirus MGRM-AE-002 (clade CRF01_AE) (HIV-1)
[13] = molecular target: HIV-1 Env of pseudovirus MGRM-AG-003 (clade CRF_AG) (HIV-1)
[14] = molecular target: HIV-1 Env of pseudovirus MGRM-Chronic-B-023 (HIV-1)
[15] = molecular target: HIV-1 Env of pseudovirus MGRM-F1-014 (HIV-1)
[16] = molecular target: HIV-1 Env of pseudovirus MGRM-F1-016 (HIV-1)
[17] = molecular target: HIV-1 Env of pseudovirus MGRM-F1-021 (HIV-1)
[18] = molecular target: HIV-1 Env of pseudovirus MGRM-G-009 (clade G) (HIV-1)
[19] = molecular target: HIV-1 Env of pseudovirus MGRM-G-011 (HIV-1, clade G isolate MGRM-G-011)
[20] = molecular target: HIV-1 JRCSF envelope glycoprotein (Env) on pseudovirus (HIV-1) (UniProt P20871)
[21] = molecular target: HIV-1 envelope glycoprotein (Env) of isolate 92RW008, clade A (HIV-1)
[22] = molecular target: HIV-1 envelope glycoprotein (Env) of isolate MGRM-A-002, clade A (HIV-1)
[23] = molecular target: HIV-1 envelope glycoprotein (Env) of isolate MGRM-A-004, clade A (HIV-1)
[24] = molecular target: HIV-1 envelope glycoprotein (Env) of isolate MGRM-A-011, clade A (HIV-1)
[25] = molecular target: HIV-1 envelope glycoprotein (Env) of isolate MGRM-A-013, clade A (HIV-1)
[26] = molecular target: HIV-1 92BR020 Env (pseudovirus) (HIV-1)
[27] = molecular target: HIV-1 Env of isolate 6535.3 (subtype B pseudovirus) (HIV-1)
[28] = molecular target: HIV-1 Env of isolate 92UG001 (pseudovirus) (HIV-1)
[29] = molecular target: HIV-1 Env of isolate 98IN022 (HIV-1)
[30] = molecular target: HIV-1 Env of isolate JR-CSF (pseudovirus) (HIV-1) (UniProt P20871)
[31] = molecular target: HIV-1 Env of isolate JR-CSF (subtype B pseudovirus) (HIV-1) (UniProt P20871)
[32] = molecular target: HIV-1 Env of isolate MGRM-Chronic-B-020 (subtype B pseudovirus) (HIV-1)
[33] = molecular target: HIV-1 Env of isolate MGRM-Chronic-B-024 (subtype B pseudovirus) (HIV-1)
[34] = molecular target: HIV-1 Env of isolate MGRM-D-001 (clade D), on pseudovirus (HIV-1)
[35] = molecular target: HIV-1 Env of isolate MGRM-D-005 (pseudovirus) (HIV-1)
[36] = molecular target: HIV-1 Env of isolate MGRM-D-012 (pseudovirus) (HIV-1)
[37] = molecular target: HIV-1 Env of isolate MGRM-F1-015 (HIV-1)
[38] = molecular target: HIV-1 Env of isolate MGRM-F1-020 (HIV-1)
[39] = molecular target: HIV-1 Env of isolate THR0.18 (subtype B pseudovirus) (HIV-1)
[40] = molecular target: HIV-1 Env of pseudovirus isolate MGRM-G-024 (HIV-1)

Sequence of 1443_C16 (PG16) (TCN-116) (antibody) (VH): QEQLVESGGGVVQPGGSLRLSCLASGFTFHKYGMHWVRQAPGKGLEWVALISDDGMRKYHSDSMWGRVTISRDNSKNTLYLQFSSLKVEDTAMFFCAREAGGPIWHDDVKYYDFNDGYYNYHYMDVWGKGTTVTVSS
Sequence of 1443_C16 (PG16) (TCN-116) (antibody) (VL): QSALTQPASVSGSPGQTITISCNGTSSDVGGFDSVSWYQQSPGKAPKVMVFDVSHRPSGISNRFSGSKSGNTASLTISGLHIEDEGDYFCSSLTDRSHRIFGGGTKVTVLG

| Substance | IC50, pseudovirus neutralization [1] [µg/mL] | IC50, pseudovirus neutralization [2] [µg/mL] | IC50 (µg/ml), pseudovirus neutralization [3] [µg/mL] | IC50 (µg/ml), pseudovirus neutralization [4] [µg/mL] | IC50 (µg/ml), pseudovirus neutralization [5] [µg/mL] | IC50 (µg/ml), pseudovirus neutralization [6] [µg/mL] | IC50 (µg/ml), pseudovirus neutralization [7] [µg/mL] | IC50 (µg/ml), pseudovirus neutralization [8] [µg/mL] | IC50 (µg/ml), pseudovirus neutralization [9] [µg/mL] | IC50 (µg/ml), pseudovirus neutralization [10] [µg/mL] | IC50 (µg/ml), pseudovirus neutralization [11] [µg/mL] | IC50 [12] [µg/mL] | IC50 [13] [µg/mL] | IC50 (µg/ml), pseudovirus neutralization [14] [µg/mL] | IC50 (µg/ml), pseudovirus neutralization [15] [µg/mL] | IC50 (µg/ml), pseudovirus neutralization [16] [µg/mL] | IC50 (µg/ml), pseudovirus neutralization [17] [µg/mL] | IC50 [18] [µg/mL] | IC50 (µg/ml), pseudovirus neutralization [19] [µg/mL] | IC50, pseudovirus neutralization [20] [µg/mL] | other results |
| --- | --- | --- | --- | --- | --- | --- | --- | --- | --- | --- | --- | --- | --- | --- | --- | --- | --- | --- | --- | --- | --- |
| 2G12 (antibody) | 23.9 | > 50 | > 50 | 9.24 | 1.9 | 0.08 | > 50 | 25.7 | > 50 | > 50 | > 50 | > 50 | > 50 | 0.16 | > 50 | > 50 | 14.1 | > 50 | > 50 | 0.66 | IC90 (pseudovirus neutralization) [20]: 5.38 µg/mL; IC50 (µg/ml), pseudovirus neutralization [21]: 22.5 µg/mL; IC50 (µg/ml), pseudovirus neutralization [22]: > 50 µg/mL; IC50 (µg/ml), pseudovirus neutralization [23]: > 50 µg/mL; IC50 (µg/ml), pseudovirus neutralization [24]: > 50 µg/mL; IC50 (µg/ml), pseudovirus neutralization [25]: > 50 µg/mL |
| 1443_C16 (PG16) (TCN-116) (antibody) | > 50 | > 50 | 0.007 | > 50 | 0.29 | > 50 | > 50 | 19.7 | 16.3 | > 50 | 0.18 | 0.01 | > 50 | 0.13 | 0.01 | 1.12 | > 50 | > 50 | 0.04 | < 0.0025 | IC90 (pseudovirus neutralization) [20]: 0.013 µg/mL; IC50 (µg/ml), pseudovirus neutralization [21]: 0.002 µg/mL; IC50 (µg/ml), pseudovirus neutralization [22]: 0.004 µg/mL; IC50 (µg/ml), pseudovirus neutralization [23]: 0.04 µg/mL; IC50 (µg/ml), pseudovirus neutralization [24]: 0.24 µg/mL; IC50 (µg/ml), pseudovirus neutralization [25]: 0.09 µg/mL |
| 2F5 (antibody) | 2.8 | 2 | > 50 | 3.81 | 0.25 | 0.55 | 0.63 | > 50 | > 50 | > 50 | 3.9 | 0.31 | 0.14 | 0.1 | 15.1 | 21.5 | 1.37 | 7.21 | 1.16 | 3.36 | IC90 (pseudovirus neutralization) [20]: 25.3 µg/mL; IC50 (µg/ml), pseudovirus neutralization [21]: 10.4 µg/mL; IC50 (µg/ml), pseudovirus neutralization [22]: > 50 µg/mL; IC50 (µg/ml), pseudovirus neutralization [23]: 7.49 µg/mL; IC50 (µg/ml), pseudovirus neutralization [24]: > 50 µg/mL; IC50 (µg/ml), pseudovirus neutralization [25]: 0.66 µg/mL |
| 4E10 (antibody) | 3.8 | 5.1 | 4.55 | 7.33 | 1.1 | 1.46 | 1.84 | 35.2 | > 50 | 1.28 | 4.58 | 0.55 | 0.64 | 27.9 | 7.36 | 7.61 | 1.87 | 1.34 | 1.44 | 6 | IC90 (pseudovirus neutralization) [20]: 44.1 µg/mL; IC50 (µg/ml), pseudovirus neutralization [21]: 14.5 µg/mL; IC50 (µg/ml), pseudovirus neutralization [22]: 6.45 µg/mL; IC50 (µg/ml), pseudovirus neutralization [23]: 3.14 µg/mL; IC50 (µg/ml), pseudovirus neutralization [24]: 2.88 µg/mL; IC50 (µg/ml), pseudovirus neutralization [25]: 1.46 µg/mL |
| 4858_P08 (PGT-123) (antibody) |  |  |  |  |  |  |  |  |  |  |  |  |  |  |  |  |  |  |  |  | neutralization IC50 (pseudovirus) [26]: 0.013 µg/mL; IC50 (µg/mL), pseudovirus neutralization [27]: 0.004 µg/mL; IC50, pseudovirus neutralization [28]: > 50 µg/mL; neutralization IC50 [29]: 0.011 µg/mL; Primary Neutralization Index (B cell culture supernatant) [30]: 1.6; IC50 (µg/mL), pseudovirus neutralization [31]: 0.046 µg/mL; IC50 (µg/mL), pseudovirus neutralization [32]: 0.005 µg/mL; IC50 (µg/mL), pseudovirus neutralization [33]: > 50 µg/mL; IC50, pseudovirus neutralization [34]: 0.215 µg/mL; IC50, pseudovirus neutralization [35]: > 50 µg/mL; IC50, pseudovirus neutralization [36]: > 50 µg/mL; IC50 (µg/mL), pseudovirus neutralization [37]: > 50 µg/mL; IC50 (µg/mL), pseudovirus neutralization [38]: 0.051 µg/mL; IC50 (µg/mL), pseudovirus neutralization [39]: > 50 µg/mL; IC50 (µg/mL), pseudovirus neutralization [40]: 0.032 µg/mL; neutralization IC50 [20]: 0.0423 µg/mL; neutralization IC80 [20]: 0.143 µg/mL; neutralization IC90 [20]: 0.289 µg/mL; neutralization IC95 [20]: 0.547 µg/mL |
| b12 (antibody) | > 25 | > 25 | > 50 | > 50 | > 50 | 0.75 | > 50 | > 50 | > 50 | 0.78 | > 50 | 17.1 | > 50 | > 50 | > 50 | > 50 | > 50 | > 50 | > 50 | 0.16 | IC90 (pseudovirus neutralization) [20]: 1.17 µg/mL; IC50 (µg/ml), pseudovirus neutralization [21]: 9.46 µg/mL; IC50 (µg/ml), pseudovirus neutralization [22]: > 50 µg/mL; IC50 (µg/ml), pseudovirus neutralization [23]: > 50 µg/mL; IC50 (µg/ml), pseudovirus neutralization [24]: 4.01 µg/mL; IC50 (µg/ml), pseudovirus neutralization [25]: 7.04 µg/mL |
| 1495_C14 (PGC14) (antibody) | > 50 | > 50 | > 50 | > 50 | 23 | > 50 | > 50 | > 50 | > 50 | > 50 | > 50 | > 50 | > 50 | > 50 | > 50 | > 50 | 46 | > 50 | > 50 | > 50 | IC50 (µg/ml), pseudovirus neutralization [21]: 37 µg/mL; IC50 (µg/ml), pseudovirus neutralization [22]: > 50 µg/mL; IC50 (µg/ml), pseudovirus neutralization [23]: > 50 µg/mL; IC50 (µg/ml), pseudovirus neutralization [24]: > 50 µg/mL; IC50 (µg/ml), pseudovirus neutralization [25]: > 50 µg/mL |
